± gives the uncertainty stated by the source.
B1: GA-binding protein alpha chain, residues 172 to 250; numbered along this chain, Q06546 (parent)
chain: GYRKEQERLGIPYDPIQWSTDQVLHWVVWVMKEFSMTDIDLTTLNISGRELCSLNQEDFFQRVPRGEILWSHLELLRKY

Variants of: B1
Assay: abundance fitness (aPCA) (normalised: wild type 0, dead -1); higher = more abundant; growth selection in yeast, the domain comes from the species named
Conditions: Homo sapiens

Row | Variant | abundance fitness
1 | GYRKEQERLGIPYDPIQWSRDQVLHWVVWVMKEFSMTDIDLTTLNISGRELCSLNQEDFFQRVPRGEILWSHLELLRKY | -0.022 ± 0.032
2 | GYRKEQERLGIPYDPIQWSDDQVLHWVVWVMKEFSMTDIDLTTLNISGRELCSLNQEDFFQRVPRGEILWSHLELLRKY | -0.101 ± 0.086
3 | GYRKEQERLGIPYDPIQWSSDQVLHWVVWVMKEFSMTDIDLTTLNISGRELCSLNQEDFFQRVPRGEILWSHLELLRKY | 0.041 ± 0.036
4 | GYRKEQERLGIPYDPIQWSCDQVLHWVVWVMKEFSMTDIDLTTLNISGRELCSLNQEDFFQRVPRGEILWSHLELLRKY | -0.118 ± 0.069
5 | GYRKEQERLGIPYDPIQWSKDQVLHWVVWVMKEFSMTDIDLTTLNISGRELCSLNQEDFFQRVPRGEILWSHLELLRKY | 0.043 ± 0.069
6 | GYRKEQERLGIPYDPIQWSNDQVLHWVVWVMKEFSMTDIDLTTLNISGRELCSLNQEDFFQRVPRGEILWSHLELLRKY | 0.103 ± 0.099
7 | GYRKEQERLGIPYDPIQWSPDQVLHWVVWVMKEFSMTDIDLTTLNISGRELCSLNQEDFFQRVPRGEILWSHLELLRKY | -0.013 ± 0.053
8 | GYRKEQERLGIPYDPIQWSGDQVLHWVVWVMKEFSMTDIDLTTLNISGRELCSLNQEDFFQRVPRGEILWSHLELLRKY | -0.069 ± 0.032
9 | GYRKEQERLGIPYDPIQWSIDQVLHWVVWVMKEFSMTDIDLTTLNISGRELCSLNQEDFFQRVPRGEILWSHLELLRKY | -0.101 ± 0.12
10 | GYRKEQERLGIPYDPIQWSYDQVLHWVVWVMKEFSMTDIDLTTLNISGRELCSLNQEDFFQRVPRGEILWSHLELLRKY | -0.529 ± 0.11
11 | GYRKEQERLGIPYDPIQWSLDQVLHWVVWVMKEFSMTDIDLTTLNISGRELCSLNQEDFFQRVPRGEILWSHLELLRKY | -0.318 ± 0.043
12 | GYRKEQERLGIPYDPIQWSWDQVLHWVVWVMKEFSMTDIDLTTLNISGRELCSLNQEDFFQRVPRGEILWSHLELLRKY | -0.516 ± 0.061
13 | GYRKEQERLGIPYDPIQWSQDQVLHWVVWVMKEFSMTDIDLTTLNISGRELCSLNQEDFFQRVPRGEILWSHLELLRKY | -0.043 ± 0.063
14 | GYRKEQERLGIPYDPIQWSADQVLHWVVWVMKEFSMTDIDLTTLNISGRELCSLNQEDFFQRVPRGEILWSHLELLRKY | 0.024 ± 0.043
15 | GYRKEQERLGIPYDPIQWSHDQVLHWVVWVMKEFSMTDIDLTTLNISGRELCSLNQEDFFQRVPRGEILWSHLELLRKY | -0.047 ± 0.11
16 | GYRKEQERLGIPYDPIQWSEDQVLHWVVWVMKEFSMTDIDLTTLNISGRELCSLNQEDFFQRVPRGEILWSHLELLRKY | 0.039 ± 0.053
17 | GYRKEQERLGIPYDPIQWSMDQVLHWVVWVMKEFSMTDIDLTTLNISGRELCSLNQEDFFQRVPRGEILWSHLELLRKY | -0.15 ± 0.057
18 | GYRKEQERLGIPYDPIQWSVDQVLHWVVWVMKEFSMTDIDLTTLNISGRELCSLNQEDFFQRVPRGEILWSHLELLRKY | -0.03 ± 0.039
19 | GYRKEQERLGIPYDPIQWSFDQVLHWVVWVMKEFSMTDIDLTTLNISGRELCSLNQEDFFQRVPRGEILWSHLELLRKY | -0.716 ± 0.19
20 | GYRKEQERLGIPYDPIQWNTDQVLHWVVWVMKEFSMTDIDLTTLNISGRELCSLNQEDFFQRVPRGEILWSHLELLRKY | -0.053 ± 0.11
21 | GYRKEQERLGIPYDPIQWYTDQVLHWVVWVMKEFSMTDIDLTTLNISGRELCSLNQEDFFQRVPRGEILWSHLELLRKY | -0.65 ± 0.14
22 | GYRKEQERLGIPYDPIQWWTDQVLHWVVWVMKEFSMTDIDLTTLNISGRELCSLNQEDFFQRVPRGEILWSHLELLRKY | -0.927 ± 0.11
23 | GYRKEQERLGIPYDPIQWLTDQVLHWVVWVMKEFSMTDIDLTTLNISGRELCSLNQEDFFQRVPRGEILWSHLELLRKY | -0.864 ± 0.094

Row | Variant | abundance fitness
24 | GYRKEQERLGIPYDPIQWMTDQVLHWVVWVMKEFSMTDIDLTTLNISGRELCSLNQEDFFQRVPRGEILWSHLELLRKY | -0.836 ± 0.14
25 | GYRKEQERLGIPYDPIQWATDQVLHWVVWVMKEFSMTDIDLTTLNISGRELCSLNQEDFFQRVPRGEILWSHLELLRKY | -0.664 ± 0.062
26 | GYRKEQERLGIPYDPIQWTTDQVLHWVVWVMKEFSMTDIDLTTLNISGRELCSLNQEDFFQRVPRGEILWSHLELLRKY | 0.05 ± 0.073
27 | GYRKEQERLGIPYDPIQWGTDQVLHWVVWVMKEFSMTDIDLTTLNISGRELCSLNQEDFFQRVPRGEILWSHLELLRKY | -0.34 ± 0.035
28 | GYRKEQERLGIPYDPIQWQTDQVLHWVVWVMKEFSMTDIDLTTLNISGRELCSLNQEDFFQRVPRGEILWSHLELLRKY | -0.225 ± 0.053
29 | GYRKEQERLGIPYDPIQWVTDQVLHWVVWVMKEFSMTDIDLTTLNISGRELCSLNQEDFFQRVPRGEILWSHLELLRKY | -0.996 ± 0.1
30 | GYRKEQERLGIPYDPIQWKTDQVLHWVVWVMKEFSMTDIDLTTLNISGRELCSLNQEDFFQRVPRGEILWSHLELLRKY | -0.281 ± 0.077
31 | GYRKEQERLGIPYDPIQWETDQVLHWVVWVMKEFSMTDIDLTTLNISGRELCSLNQEDFFQRVPRGEILWSHLELLRKY | -0.311 ± 0.057
32 | GYRKEQERLGIPYDPIQWHTDQVLHWVVWVMKEFSMTDIDLTTLNISGRELCSLNQEDFFQRVPRGEILWSHLELLRKY | -0.096 ± 0.17
33 | GYRKEQERLGIPYDPIQWDTDQVLHWVVWVMKEFSMTDIDLTTLNISGRELCSLNQEDFFQRVPRGEILWSHLELLRKY | -0.048 ± 0.072
34 | GYRKEQERLGIPYDPIQWCTDQVLHWVVWVMKEFSMTDIDLTTLNISGRELCSLNQEDFFQRVPRGEILWSHLELLRKY | -0.487 ± 0.065
35 | GYRKEQERLGIPYDPIQWFTDQVLHWVVWVMKEFSMTDIDLTTLNISGRELCSLNQEDFFQRVPRGEILWSHLELLRKY | -0.849 ± 0.12
36 | GYRKEQERLGIPYDPIQWRTDQVLHWVVWVMKEFSMTDIDLTTLNISGRELCSLNQEDFFQRVPRGEILWSHLELLRKY | -0.14 ± 0.029
37 | GYRKEQERLGIPYDPIQWPTDQVLHWVVWVMKEFSMTDIDLTTLNISGRELCSLNQEDFFQRVPRGEILWSHLELLRKY | -0.82 ± 0.1
38 | GYRKEQERLGIPYDPIQWSTKQVLHWVVWVMKEFSMTDIDLTTLNISGRELCSLNQEDFFQRVPRGEILWSHLELLRKY | -0.029 ± 0.084
39 | GYRKEQERLGIPYDPIQWSTHQVLHWVVWVMKEFSMTDIDLTTLNISGRELCSLNQEDFFQRVPRGEILWSHLELLRKY | -0.049 ± 0.054
40 | GYRKEQERLGIPYDPIQWSTIQVLHWVVWVMKEFSMTDIDLTTLNISGRELCSLNQEDFFQRVPRGEILWSHLELLRKY | -0.36 ± 0.068
41 | GYRKEQERLGIPYDPIQWSTGQVLHWVVWVMKEFSMTDIDLTTLNISGRELCSLNQEDFFQRVPRGEILWSHLELLRKY | -0.002 ± 0.031
42 | GYRKEQERLGIPYDPIQWSTFQVLHWVVWVMKEFSMTDIDLTTLNISGRELCSLNQEDFFQRVPRGEILWSHLELLRKY | -0.391 ± 0.094
43 | GYRKEQERLGIPYDPIQWSTAQVLHWVVWVMKEFSMTDIDLTTLNISGRELCSLNQEDFFQRVPRGEILWSHLELLRKY | -0.031 ± 0.044
44 | GYRKEQERLGIPYDPITWSTDQVLHWVVWVMKEFSMTDIDLTTLNISGRELCSLNQEDFFQRVPRGEILWSHLELLRKY | -0.029 ± 0.098
45 | GYRKEQERLGIPYDPIPWSTDQVLHWVVWVMKEFSMTDIDLTTLNISGRELCSLNQEDFFQRVPRGEILWSHLELLRKY | -0.942 ± 0.14
46 | GYRKEQERLGIPYDPIWWSTDQVLHWVVWVMKEFSMTDIDLTTLNISGRELCSLNQEDFFQRVPRGEILWSHLELLRKY | -0.08 ± 0.048

Row | Variant | abundance fitness
47 | GYRKEQERLGIPYDPILWSTDQVLHWVVWVMKEFSMTDIDLTTLNISGRELCSLNQEDFFQRVPRGEILWSHLELLRKY | -0.01 ± 0.034
48 | GYRKEQERLGIPYDPIVWSTDQVLHWVVWVMKEFSMTDIDLTTLNISGRELCSLNQEDFFQRVPRGEILWSHLELLRKY | -0.121 ± 0.043
49 | GYRKEQERLGIPYDPIRWSTDQVLHWVVWVMKEFSMTDIDLTTLNISGRELCSLNQEDFFQRVPRGEILWSHLELLRKY | -0.009 ± 0.036
50 | GYRKEQERLGIPYDPIIWSTDQVLHWVVWVMKEFSMTDIDLTTLNISGRELCSLNQEDFFQRVPRGEILWSHLELLRKY | -0.269 ± 0.07
51 | GYRKEQERLGIPYDPIKWSTDQVLHWVVWVMKEFSMTDIDLTTLNISGRELCSLNQEDFFQRVPRGEILWSHLELLRKY | -0.143 ± 0.059
52 | GYRKEQERLGIPYDPINWSTDQVLHWVVWVMKEFSMTDIDLTTLNISGRELCSLNQEDFFQRVPRGEILWSHLELLRKY | -0.062 ± 0.1
53 | GYRKEQERLGIPYDPIMWSTDQVLHWVVWVMKEFSMTDIDLTTLNISGRELCSLNQEDFFQRVPRGEILWSHLELLRKY | -0.134 ± 0.069
54 | GYRKEQERLGIPYDPIQYSTDQVLHWVVWVMKEFSMTDIDLTTLNISGRELCSLNQEDFFQRVPRGEILWSHLELLRKY | -0.669 ± 0.14
55 | GYRKEQERLGIPYDPIQHSTDQVLHWVVWVMKEFSMTDIDLTTLNISGRELCSLNQEDFFQRVPRGEILWSHLELLRKY | -1 ± 0.46
56 | GYRKEQERLGIPYDPIQLSTDQVLHWVVWVMKEFSMTDIDLTTLNISGRELCSLNQEDFFQRVPRGEILWSHLELLRKY | -0.974 ± 0.087
57 | GYRKEQERLGIPYDPIQTSTDQVLHWVVWVMKEFSMTDIDLTTLNISGRELCSLNQEDFFQRVPRGEILWSHLELLRKY | -0.98 ± 0.16
58 | GYRKEQERLGIPYDPIQISTDQVLHWVVWVMKEFSMTDIDLTTLNISGRELCSLNQEDFFQRVPRGEILWSHLELLRKY | -0.915 ± 0.24
59 | GYRKEQERLGIPYDPIQKSTDQVLHWVVWVMKEFSMTDIDLTTLNISGRELCSLNQEDFFQRVPRGEILWSHLELLRKY | -0.864 ± 0.15
60 | GYRKEQERLGIPYDPIQMSTDQVLHWVVWVMKEFSMTDIDLTTLNISGRELCSLNQEDFFQRVPRGEILWSHLELLRKY | -0.957 ± 0.18
61 | GYRKEQERLGIPYDPIQGSTDQVLHWVVWVMKEFSMTDIDLTTLNISGRELCSLNQEDFFQRVPRGEILWSHLELLRKY | -0.779 ± 0.053
62 | GYRKEQERLGIPYDPIQASTDQVLHWVVWVMKEFSMTDIDLTTLNISGRELCSLNQEDFFQRVPRGEILWSHLELLRKY | -0.862 ± 0.11
63 | GYRKEQERLGIPYDPIQSSTDQVLHWVVWVMKEFSMTDIDLTTLNISGRELCSLNQEDFFQRVPRGEILWSHLELLRKY | -0.835 ± 0.072
64 | GYRKEQERLGIPYDPIQDSTDQVLHWVVWVMKEFSMTDIDLTTLNISGRELCSLNQEDFFQRVPRGEILWSHLELLRKY | -1.05 ± 0.24
65 | GYRKEQERLGIPYDPIQFSTDQVLHWVVWVMKEFSMTDIDLTTLNISGRELCSLNQEDFFQRVPRGEILWSHLELLRKY | -0.901 ± 0.28
66 | GYRKEQERLGIPYDPIQRSTDQVLHWVVWVMKEFSMTDIDLTTLNISGRELCSLNQEDFFQRVPRGEILWSHLELLRKY | -0.905 ± 0.07
67 | GYRKEQERLGIPYDPIQQSTDQVLHWVVWVMKEFSMTDIDLTTLNISGRELCSLNQEDFFQRVPRGEILWSHLELLRKY | -0.944 ± 0.13
68 | GYRKEQERLGIPYDPIQNSTDQVLHWVVWVMKEFSMTDIDLTTLNISGRELCSLNQEDFFQRVPRGEILWSHLELLRKY | -0.134 ± 0.18
69 | GYRKEQERLGIPYDPIQVSTDQVLHWVVWVMKEFSMTDIDLTTLNISGRELCSLNQEDFFQRVPRGEILWSHLELLRKY | -0.927 ± 0.081

— the Human Domainome abundance scans (Beltran et al. 2025)
